Laboratory results from article PMC11734722.

Columns and labels:
[1] = target: α-synuclein monomer (not stated (mouse or human recombinant monomer bought)) (UniProt O55042); assay: MST
[2] = target: β-synuclein (β-syn) peptide, 36 to 45 amino acids, all D type; assay: ITC

Row | Kd [1] [µM] | Kd [2] [µM] | Substance
1 | 43.8 | – | α-synuclein monomer (from UniProt O55042 1-140) (natural protein)
2 | – | 0.386 | α-synuclein preformed fibrils (α-syn PFF) (from UniProt O55042 1-140) (natural protein)
